The nanobody polyreactivity screen of Harvey et al. (2022)

Assay: yeast display, Sf9 membrane polyspecificity reagent, FACS + sequencing; frameworks hold sequencing errors
Procedure, shortened: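 A synthetic nanobody library was expressed on Saccharomyces cerevisiae BJ5465 by galactose induction for 36–48 hours. The library was stained for 1 hour at 4 °C with 10% biotinylated, detergent-solubilized Sf9 membrane reagent and enriched with streptavidin microbeads before FACS. Low and high (top ~1%) gates were set on anti-HA fluorescence for expression and streptavidin fluorescence for reagent binding, and each polyreactivity label reflects the gate of origin.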

Row | Sequence | polyreactivity (PSR sort gate)
1 | QVQLQESGGGLVQGGGSLRLSCAASGSNYRSWYMGWYRQAPGKERELVASITEGATTNYAYSVKAALPLAAITRNSVYRQMDSMKPEDTAVYYRGASFGSTYDLVYWGQGTQVTVSS | high polyreactivity
2 | QVQLQESGGGLVQVGGSQRLSCAASGNIFYNYAMGWYRHAHGKEREFDATINHGTSINYADSVKGRFTISRDNAKNTVYLQMNSLKPEDTAVYYCAADLSWTDNLFYWGQGTQVTVSS | low polyreactivity
3 | QVQLQESGGGLVQVGGSQRLSCAASGNNFYNYAMGWYRHAQGKEREFDATINHGTSINYADSVKGRFTISRDNAKNTVYLQMNSLKPEDTAVYYCAADLSWTDNLFYWGQGTQVTVSS | low polyreactivity
4 | QVQLQESGGGLVQVGGSQSLICAASGNIFYNYAMGWYRHAQGKEREFDATINHGTSINYADSVKGRFTISRDNAKNTVYLQMNSLKPEDTAVYYCAADLSRTDNLFYWGQGTQVTVSS | low polyreactivity
5 | QVQLQESGGGMVQAGGSLRLSCAASGSIFVSVTMGWYRQAPGKERELVASIGRGSTTNHADSVKGLFTISRDNAKNIVYLLMNSLKPEDTAVYYCAALESYAKYHGYWGQGTQVTVSS | low polyreactivity
6 | QVQLQESGGGQVQAGGSLRLSCAASGSIYDDTYMGWYRQAPGKERELVATIDSGSTTNYADSVIGRITISRDNAKNTVYLQMNSLKPEDTAVYYCAAADSHIDYFDYWGQGTQVTVSS | low polyreactivity
7 | QVQLQESGGGQVQAGGSLRLSCAASGTISPLPAMGWYRQAPGKEREFVAGIDTGAITNYADSVKGRFTISRDNAKNTVYLQMISLKPEDTAVYYCAVFPAAYDYYERYYTYWGQGTQVYVSS | low polyreactivity
8 | QVQLQESGGGQVQAGGSLRLSCAASGYISTHYFMGWYRQAPGKDREFVAGISNGSITNYADSVKGRFTISRDNARNTVYLQMNSLKPEDTEVYYGAAYEWTYVRFGYWGQGTQVTVSG | high polyreactivity
9 | QVQLQESGGGQVQAGGSLRQSCAASGSIFQATYMGWDRQAPSKEREFVASITYGSITNYADSVKGRFTIGRDNAKDTWYLQMNSLKPEDAAVYYCAVDRHYIPAFHYWGQGTQVNVSS | low polyreactivity
10 | QVQLQESGGGVQAGGSLRLSCAASGSISAPILMGWYRQAPGKERELVAGIGGGANTYYADSVKGRFTVSRDNAKYTVYLQMNSLKPEDTAVYYCAAGDYYWTNFGYWGQGTQVTASS | high polyreactivity
11 | QVQLQESGGGVQAGGSLRLSCAASGSISAPILMVWYRQAPGKERELVAGIGGGANTYYADSVKGRFTVSRDNAKYTVYLQMNSLKPEDTAVYYCAAGDYYWTNFGYWGQGTQVTASS | high polyreactivity
12 | QVQLQESGGLVQAGGSLRLSCAASGSISGRNVMGWYRQSPGKEREFVASITDGSSNNYADSVKGRFTISRDNAKNTVYLQMNSLKPKDTAVYYCAAYAQRAKSFGYWGRGTQVTVSS | low polyreactivity
13 | QVQLQESGGLVQAGGSLRMSCAASGSISGRNVMGWYRQAPGKEREFVASITDGSSTNYADSVKGRFTISRDNAKNTLFLQMNSLKPKDTAVYYCAAYAQRGKSFGYWGRGTQVTVSS | low polyreactivity
14 | QVQLQESGGVLVQEGGSLRLSCAASGNISPQADMGWYRQATGTERELVASIGTGGTTNYADSVKGRFTISRDNAKNTVYLQMNRLKPDDTAVYYCAAVRYEYNPYDYWGQGTQVTVSS | low polyreactivity
15 | QVQLQESGRRPGSAGVSPRMSCAASGNIFWVAVMCRYRQAPGKERELVASIGFGCTTYYADSVKCRFTISRDNAKITVYLQMLSLKPFDTAVYYCAAPHYDWGELDYWGQGTQVPVSS | low polyreactivity
16 | QVQLQESGVRMVQAGGSLRLSCAASGNIFLGDTMGWYRQAPGKEREFVAGIARGGNPYYADSEKGRLTISRNNANNTVYLEKISLKPEDSAVHYCSVQRSDASDYNYWGQGTQVTVIS | low polyreactivity
17 | QVQLQESRGGLVQAGGSLRLICAASGSISCPHVMGWYRQAPGKEREFVAAINVGANTYYADNVKGRFTISRDNAKNTVYLQKNSLKPEATAVYYCAAVYYGDIGHEYWGQGTQVTVSC | low polyreactivity
18 | QVQLQESVGGLVQADGSLRLSCAASGTIFTQSYMGWYRQAPGKEREFVAGISNGTKTNYGDSVKGRFTISRDNAKNTVYLQMHRLKLEDTAVYYCAVKGFYVDVLAYWGQGTHVTVSS | high polyreactivity
19 | QVQLQESVGLVQAGGLRLSCAASGSVSYQEAMGWYRQAPAKERELVATISFGANTNYADSVKGRFTISRDNAKNTVYLQMNCLKPEDTAVYYCAAESLFDDYYGYWGQGTQVTVSS | low polyreactivity
20 | QVQLQGSGAGLVQAGGSLRLSCAPSGYILQNVPMGWNRQAPGKERELVAGIDNGTSTNYADSVNGSFTISRDNAKNTVYLQMNSLKPEDTAVYYCAAAGQADETLGYWGQGTQVTVSR | low polyreactivity
21 | QVQLQGSGGGLAQAGDSLRLSCAASGTIFSEYNNGLVSPGAGQRTRTCCRYWCWGNTYYADSAKGRFTTSRDNANNTVYLQKNSLIPEDTAVYYCAFNRPYPSRHIYRGQGTQVTVSS | high polyreactivity
22 | QVQLQVSGGDLVPAGGSLRLSCAGSGTIYGLTSMAWYRQAPGKEREFVAAITDGGNANYADSVKGRFTISRDNAKNTVYLQMISLKPEDTAVYYCAVLFSDDAYYAYWGQGTQVTVSS | low polyreactivity

Row | Sequence | polyreactivity (PSR sort gate)
23 | QVQLQVSGGDLVQAGGSLRMSCAASGTIYGLTSMGWNRQAPGKEREFVAAITDGGNTNYADSVKGRFTISRDNAKNTVYLQMISLKPEDTAVFYCAVLFSDDAYYAYWGQGTQVNVSS | low polyreactivity
24 | QVQLRESGAGGRQPAPELRCERQYFYWSADGLVSQPPGKEREFVAGIDRGTITNYADSVRGRFTISRDNAKNTVYLQMNSLKPEDTAVYYCNAEYRRRPKLGDEDEYWGHGTQVTVSS | high polyreactivity
25 | QVQLRESGCGLVQAGGNLRLSCAASGNIFDADIMGWYGQAPGKERELVASITEGGSTNYADSVRCRFTISRDNAKNTVYLQMISLKPEDTAVYYCTAIAYPDIPTYFDHDSDYFYWGQGTQVTVSS | high polyreactivity
26 | QVQLRESGCGLVQAGGNLRLSCAASGNIFDADIMGWYRQAPGKERELVASITDGGSTYYADSVRCRFTISRDNAKNTVYLQMNSLKPEDTAVYYCTAIAYPDIPTYFDHDSDYFYWGQGTQVTVSS | high polyreactivity
27 | QVQLRESGGGLVQAGGSLRLSCAASGRIFSVYAMGWDRQAPGKERELVAAITRVGSTNYADSVKGRFTISRDNAKNTVYLQMNSLKPEDTAVYYCAARSTGYPTGRMYYWGQGTQVTVSS | high polyreactivity
28 | QVQLRESGGGLVQAGGSLRLSCAASGRILYSYAMGWYRQAPGKERELVAAISWRGGPTYYADSVKGRFTISRDYAKNSVYLPMNSLKPEDTAVYYCAAEFYDLPWLYDYWGQGTQVTVSS | low polyreactivity
29 | QVQLVASGGGLLQAGGSLRLSCAASGIIFDRYTMGWYRQAPGKERELVASISDDDGSTYYADSVKGRFTISRDNAKNTVYLQMNSLTPEDTAVYYCKALSIIFDYWGQATQVTVSS | low polyreactivity
30 | QVQLVASGGGLVHAGGSLRLSCAASGRIFTHNAMGWSRQAPGKEREMVAAITSGGRTTYADSVKGRFTISRDNAKNTVYFQMNSLKPEDTAVYYCNADTGLGSLDFDKRDYWGQGTQVTVSS | low polyreactivity
31 | QVQLVASGGGLVQTGGSLRLSCAASGSTCVWYTIGWYRQAPGKERELVADISRSGGSTYYADSVKGRFTISRDNAKKTIYLQKNSLKAEDTAVYYCARYGYVYNTREPPKVVTFDYSGQGTQVTVSS | high polyreactivity
32 | QVQLVASRGGLVQAGGILRLSSAASGSTFPSYEMGWYRQARGKERELVAAINSGRGSNYADSVKGRFTISRDNAKNTVYLQMNCLIPDDTAVYYCGISRYDYTNTEGGYWGQGTQVTVSS | low polyreactivity
33 | QVQLVDSAGGLVQAGGILRLSCAASGFTFDAKSRGWYRQAPGTERELVDAISLSDGSTYYADSVKGRFTISRDNAKNTVYLQMNSLKPEDTAVYYCNAERFGSGLAWLLFDYWGQGTQVTVSS | low polyreactivity
34 | QVQLVDSAGGLVQAGGSLRLSCAASGFIFRRNAMGWYRQAPGKERELVAGINRSGTRTYYADSVKGRFTISRDNAKNTVNLQMNSLKPEDTAVYYCAALVYRPTYGYIFDYWGQGTQVTVSS | high polyreactivity
35 | QVQLVDSAGGLVQAGGSLRLSCAASGSIFFRYAMGGYRQAAGKERELVAAITQRTGSTYYADSVKGRFTISRDNAKITVYLQMNSLKPEDTAVYYCAAKRWRRSFTGNYWGQGTQVTVSS | high polyreactivity
36 | QVQLVDSAGGLVQAGGSLRLSCAASGSIINSNAMGWYRQAPGKERELVAAINWRGGSTYYADSVKGRFTISRDNAKNTVYLQMNSLKPEDTAVYYCNALRRAPRAEYYYGGQGTQVTVSS | high polyreactivity
37 | QVQLVDSAGGLVQAGGSLSLSCAASGFIFGRYAMGWYRQAPGKERELVAVITWSGGRTYYADSVKGRFTISRDNAKNTVYLQMNSLKPEDTAVYYCAADRYPYHYGYDYWGQGTQVTVSS | high polyreactivity
38 | QVQLVDSGGCLVQAGGSHRLSCSASGRIYPWYAMVWYRQAPGKERELVASITRNGGDTYYADSVKGRFTISRDNAKNTVYLQMNSLKPEDTAVYYCNAVRGYWFRQKDTIELGYWGQGTQVTVSS | high polyreactivity
39 | QVQLVDSGGGFVQAGGSLRLSCAASGFIFRSYAMRWYRTAPGKERELVAAITKSGGRTYYADSVKGRFTISRDNAKNTVYLQMNSLKPEDTAVYYCAADGAYGGYDYWGQGTLVTVSS | low polyreactivity
40 | QVQLVDSGGGIVQAGGSLRLRCAASGFTFDFYAMGWYRQAPGKERELVADISSSDGSTYADSVKGRFTISRDNAKNTVYLQMNSLNPEDTAVYYCAADYDNQYDFSLDDEYWGQVTQVTVSS | low polyreactivity
41 | QVQLVDSGGGIVQAGGSLRLSCPASGITFPKYAMGWYRQAPGKERELVAAITKSSGSTYYADSVKGRFTISRDNAKNTVYLQMKSLKPEDTAVYYCAARRVNHIRSYSYVSNYGYWGQGTQVTVSS | high polyreactivity
42 | QVQLVDSGGGIVQAGGSLRVSCAASGRTFWYYTMGWYIQAPGKERELVAAITSGGSKYYSDSVKGRFTISRDNAKNTVYLQMISLNPEDTAVYYCAAYLLPAYSRISNDYWGQGTQVTVSS | high polyreactivity
43 | QVQLVDSGGGKVQAGGSLRLSCAASGITFSRNAMGWYRQAPGKEMELVAAITWNGGRTYYADSVKGRFTISRDNAKNTVDLQMNSLKPEDTAVYYCAADSGTRNLASYRYYYWGQGTQGTVSS | high polyreactivity
